Results taken from paper PMC7044312, “NMT1 and NMT2 are lysine myristoyltransferases regulating the ARF6 GTPase cycle” (Nature Communications, 2020).
No end group written: not given here.

Molecular target: T1, NMT1 (115–496), NMT catalytic domain (human, UniProt P30419 115-496)
T1 construct: human N-myristoyltransferase 1, catalytic domain, residues 115-496; Crystallised with myristoyl-CoA; also called N-myristoyltransferase 1; source: E. coli BL21, purified (Ni-NTA, PreScission cleavage, Superdex 75)
T1 sequence (looked up): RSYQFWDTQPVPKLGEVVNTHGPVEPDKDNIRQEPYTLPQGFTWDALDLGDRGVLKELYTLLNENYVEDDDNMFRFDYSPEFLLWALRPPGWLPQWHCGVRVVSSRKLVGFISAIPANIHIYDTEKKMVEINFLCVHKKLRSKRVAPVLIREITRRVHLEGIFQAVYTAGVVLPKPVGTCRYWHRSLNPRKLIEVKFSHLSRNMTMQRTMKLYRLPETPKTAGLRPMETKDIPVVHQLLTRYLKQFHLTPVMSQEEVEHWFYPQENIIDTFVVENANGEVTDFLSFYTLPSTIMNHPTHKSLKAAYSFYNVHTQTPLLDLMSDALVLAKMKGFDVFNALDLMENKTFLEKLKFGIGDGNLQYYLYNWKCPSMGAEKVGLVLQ
Assay: crystal structure; NMT1 7.5 mg/ml in 25 mM Tris-HCl pH 7.5, 120 mM NaCl, with 0.3 mM myristoyl-CoA and 0.3 mM AcKVLSKIF; well 18% PEG 8000, 100 mM NaCl, 100 mM sodium citrate pH 5.6, 100 mM MgCl2
Conditions: both partners purified

binding result: binds
B1: Ac-KVLSKIF peptide (peptide)
peptide: Ac-KVLSKIF
modifications: also: myristoyl on Lys3 side chain (residue 3 is L), formed in crystal
notes: derived from the N-terminus of ARF6, G2 deleted; also called acetyl-KVLSKIF; myristoyl-AcKVLSKIF; source: synthetic peptide (synthesized in-house)
